The target in this assay is KDM2B^F-box-LRRs/SKP1 dimer (UniProt Q8NHM5). As to the kind of experiment: ITC. (In general: In ITC the heat of successive injections is recorded.)

Two substances from paper PMC11387744 can be followed below.

KDM2B^F-box-LRRs/SKP1 dimer, sequence (Q8NHM5 1059-1336, chain 1 of 2): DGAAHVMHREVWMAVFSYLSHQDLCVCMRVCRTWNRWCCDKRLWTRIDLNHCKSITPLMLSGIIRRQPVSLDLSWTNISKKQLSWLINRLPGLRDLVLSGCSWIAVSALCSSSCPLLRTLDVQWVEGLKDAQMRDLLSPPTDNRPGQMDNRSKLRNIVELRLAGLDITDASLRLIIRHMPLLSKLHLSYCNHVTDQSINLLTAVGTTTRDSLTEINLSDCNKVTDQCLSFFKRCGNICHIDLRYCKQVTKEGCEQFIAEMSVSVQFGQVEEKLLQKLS
KDM2B^F-box-LRRs/SKP1 dimer, sequence (P63208 2-163, chain 2 of 2, further chain): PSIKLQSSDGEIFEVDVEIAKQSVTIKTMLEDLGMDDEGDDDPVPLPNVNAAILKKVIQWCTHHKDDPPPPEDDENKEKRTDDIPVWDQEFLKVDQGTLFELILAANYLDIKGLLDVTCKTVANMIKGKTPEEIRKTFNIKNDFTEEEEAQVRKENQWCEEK

For the substance “BCOR^N1607 (D/E on Poly-D/E^2nd (1607–1611) mutated to Ala)/PCGF1^RAWUL (from UniProt Q6W2J9 1607-1755; Q9BSM1 150-255) (complex)”, the fold reduction of the affinity against the wild-type pair was over 2.5 fold.
The value for “BCOR^N1607 (D/E on Poly-D/E^3rd (1624–1631) mutated to Ala)/PCGF1^RAWUL (from UniProt Q6W2J9 1607-1755; Q9BSM1 150-255) (complex)” was over 12 fold.
